Laboratory results: US20250177503A1, “COMPOSITIONS AND METHODS FOR TREATING AUTOIMMUNE DISORDERS” (THE REGENTS OF THE UNIVERSITY OF MICHIGAN, priority 2022, published 2025)

Test system: CD4+CD25+Foxp3+T regulatory cells (Tregs)
Assay: Example III: dosing regimen optimisation, ND-OVA + IL-2/IC vs ND-OVA + wtIL-2, flow cytometry of peripheral blood CD4+ T cells
Type: in vivo, C57BL/6 mice
Settings: summary of findings
Procedure: Animals were cared for following federal, state, and local guidelines. All work performed on animals was in accordance with and approved by Institutional Animal Care & Use Committee (IACUC) at the University of Michigan, Ann Arbor. Seven-week-old female C57BL/6 mice were randomly divided into 6 groups with 5 mice in each group. For Group 1 (ND-OVA_D−3,+7+IL2/IC_D3,4,5): 0.1 mL of ND-OVA (containing 0.1 mg OVA-II peptide) was injected into each mouse subcutaneously at the tail base at Day −3 and Day 7; 0.1 mL IL2/IC (containing 1 μg murine IL-2 and […] IL-2 mAb) was injected into each mouse intraperitoneally (i.p.) at Days 0, 1, 2, and Days 10, 11, 12. For Group 2 (ND-OVA_D−4,+6+IL2/IC_D4,5,6): 0.1 mL of ND-OVA (containing 0.1 mg OVA-II peptide) was injected into each mouse subcutaneously at the tail base at Day −4 and Day 6; 0.1 mL IL2/IC (containing […] murine IL-2 and 5 μg IL-2 mAb) was injected into each mouse intraperitoneally (i.p.) at Days 0, 1, 2, and Days 10, 11, 12. For Group 3 (ND-OVA_D−3,+7+IL2/IC_D3,4,5,6,7): 0.1 mL of ND-OVA (containing 0.1 mg OVA-II peptide) was injected into each mouse subcutaneously at the tail base at Day −3 and Day 7; 0.1 mL IL2 (containing 1 μg murine IL-2) was injected into each mouse intraperitoneally (i.p.) at Days 0, 1, 2, 3, 4 and Days 10, 11, 12, 13, 14. […]

B1: IL-2: recombinant murine IL-2 (wild type IL-2 protein) (protein, UniProt P04351 21-169, looked up)
Interleukin-2: APTSSSTSSSTAEAQQQQQQQQQQQQHLEQLLMDLQELLSRMENYRNLKLPRMLTFKFYLPKQATELKDLQCLEDELGPLRHVLDLTQSKSFQLEDAENFISNIRVTVVKLKGSDNTFECQFDDESATVVDFLRRWIAFCQSIISTSPQ
- expansion of total Tregs and antigen-specific Tregs: fails to expand
